Assay [1] has as its target T1, human IL-12 (human, UniProt P29460 23-328; P29459 23-219).
T1 construct: Recombinant (Peprotech); FLAG-tagged IL-12 in the flow cytometry assays, biotinylated in the IL-12Rβ2 assay; also called hIL-12
T1 sequence 1: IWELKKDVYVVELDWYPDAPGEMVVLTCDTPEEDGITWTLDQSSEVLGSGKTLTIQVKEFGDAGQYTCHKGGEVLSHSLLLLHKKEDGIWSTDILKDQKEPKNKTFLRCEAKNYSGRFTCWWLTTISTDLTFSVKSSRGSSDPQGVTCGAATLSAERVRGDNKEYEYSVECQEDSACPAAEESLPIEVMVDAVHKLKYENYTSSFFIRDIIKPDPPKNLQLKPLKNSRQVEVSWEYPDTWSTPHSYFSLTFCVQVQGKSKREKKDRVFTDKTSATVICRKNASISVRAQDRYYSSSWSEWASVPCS
T1 sequence 2: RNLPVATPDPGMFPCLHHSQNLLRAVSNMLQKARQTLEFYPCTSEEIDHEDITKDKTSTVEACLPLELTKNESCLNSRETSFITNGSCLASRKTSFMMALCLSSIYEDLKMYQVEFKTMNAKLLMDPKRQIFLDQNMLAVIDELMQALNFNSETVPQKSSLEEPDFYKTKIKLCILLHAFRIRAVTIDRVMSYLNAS
The experiment in a line: ELISA, coated IL-12. Put shortly:
(§1)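 Each value is an absorbance measuring binding. Plates (Maxisorp) carried cytokine coated at 1 μg/mL in carbonate buffer pH 9.6 overnight at 4° C, were blocked with 1% BSA in PBS for 1 hour at 25° C, and received antibody titrations for 1 hour at 25° C. Detection used goat anti-human IgG or anti-murine immunoglobulin HRP at 1:2000 for 1 hour, then TMB stopped with 1M HCl, with absorbance taken at 450 nm (reference 620 nm).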
In general terms: In an ELISA, binding on a coated surface is turned into a signal by an enzyme label.

Assay [2] addresses T2, human IL-23 (human, UniProt P29460 23-328; Q9NPF7 20-189).
T2 construct: Recombinant (Ebioscience); HIS-tagged in flow cytometry, biotinylated in some assays; also called hIL-23; rhIL-23
T2 sequence 1: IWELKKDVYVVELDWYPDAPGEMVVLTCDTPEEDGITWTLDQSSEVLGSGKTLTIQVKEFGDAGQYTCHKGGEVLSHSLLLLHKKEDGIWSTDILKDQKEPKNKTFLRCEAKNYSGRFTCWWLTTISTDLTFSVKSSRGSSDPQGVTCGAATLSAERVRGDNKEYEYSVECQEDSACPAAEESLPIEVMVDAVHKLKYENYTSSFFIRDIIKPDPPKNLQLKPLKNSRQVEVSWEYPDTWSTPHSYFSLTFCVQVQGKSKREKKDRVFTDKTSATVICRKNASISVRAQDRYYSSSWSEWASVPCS
T2 sequence 2: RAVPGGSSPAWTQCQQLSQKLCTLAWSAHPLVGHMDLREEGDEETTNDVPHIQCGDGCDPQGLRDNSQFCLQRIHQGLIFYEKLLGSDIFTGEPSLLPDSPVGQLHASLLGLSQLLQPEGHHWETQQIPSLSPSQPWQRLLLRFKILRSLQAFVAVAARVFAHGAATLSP
The experiment in a line: ELISA, coated IL-23. Summed up:
as §1

The target of assay [3] is T1, human IL-12. The experiment in a line: ELISA, coated IL-12. Put shortly: as §1
This is another data set of the same source.

Assay [4] concerns the target T2, human IL-23. The experiment in a line: ELISA, coated IL-23. Put shortly:
as §1
The source holds these as a separate data set.

Where two headings read alike, the source gives them in different places.

B1: Antibody 60 (antibody, human IgG1, kappa, V domains shown)
VH: EVQLVQSGAEVKKPGATVKISCKASGYTFSDYYLHWVRQRPEKGLEWMGWIDPENGDTEYAPKFQGKVTITADTSTDTGYLELSSLRSEDTAVYYCAANKELRYFDVWGQGTLVTVSS
VL: DIQMTQSPSSVSASVGDRVTITCRASQSISINLHWYQQKPGKAPKLLIKFASQSISGVPSRFSGSGSGTDFSLTINSLQPEDFATYYCQQSNSFPLTFGGGTKVEIKR
For B1, the binding result with human IL-12 [1] and with human IL-23 [2] was “binds” in each case.

B2: Antibody 66 (antibody, human IgG1, kappa, V domains shown)
VH: EVQLVQSGAEVKKPGATVKISCKASGYTFSDYYLHWVRQAPGKGLEWMGWIDPENGDTEYAPKFQGRVTITADTSTDTGYLELSSLRSEDTAVYYCAANKELRYFDVWGQGTLVTVSS
VL: DIQMTQSPSSVSASVGDRVTITCRASQSISINLHWYQQKPGKAPKLLIYFASQSISGVPSRFSGSGSGTDFSLTINSLQPEDFARYYCQQSNSFPLTFGGGTKVEIKR
As for B2, the binding result with human IL-12 [1] and with human IL-23 [2] was “binds” throughout.

B3: Antibody 64 (antibody, human IgG1, kappa, V domains shown)
VH: EVQLVQSGAEVKKPGATVKISCKASGYTFSDYYLHWVRQAPGKGLEWMGWIDPENGDTEYAPKFQGKVTITADTSTDTGYLELSSLRSEDTAVYYCAANKELRYFDVWGQGTLVTVSS
VL: DIQMTQSPSSVSASVGDRVTITCRASQSISINLHWYQQKPGKAPKLLIYFASQSISGVPSRFSGYGSGTDFSLTINSLQPEDFATYYCQQSNSFPLTFGGGTKVEIKR
As to B3, the binding result in the assay with human IL-12 [1] and with human IL-23 [2] was “binds” in each case.

B4: Antibody 65 (antibody, human IgG1, kappa, V domains shown)
VH: EVQLVQSGAEVKKPGATVKISCKASGYTFSDYYLHWVRQRPEKGLEWMGWIDPENGDTEYAPKFQGKVTITADTSTDTGYLELSSLRSEDTAVYYCAANKELRYFDVWGQGTLVTVSS
VL: DIQMTQSPSSVSASVGDRVTITCRASQSISINLHWYQQKPGKAPKLLIYFASQSISGVPSRFSGYGSGTDFSLTINSLQPEDFATYYCQQSNSFPLTFGGGTKVEIKR
Take B4: the binding result in the assay with human IL-12 [1] and in the assay with human IL-23 [2] was “binds” throughout.

B5: Antibody 148 (antibody, human IgG1, kappa, V domains shown)
VH: EVQLVQSGAEVKKPGATVKISCKASGYTFSDYYLHWVRQAPEKGLEWMGWIDPENGDTEYAPKFQGRVTITADTSTDTGYLELSSLRSEDTAVYYCAANKELRYFDVWGQGTLVTVSS
VL: DIQMTQSPSSVSASVGDRVTITCRASQSISINLHWYQQKPGKAPKLLIYFASQSISGVPSRFSGSGSGTDFSLTINSLQPEDFARYFCQQSNSFPLTFGGGTKVEIKR
In the case of B5, the binding result with human IL-12 [3] and in the assay with human IL-23 [4] was “binds” throughout.

B6: Antibody 71 (antibody, human IgG1, kappa, V domains shown)
VH: EVQLVQSGAEVKKPGATVKISCKASGYTFSDYYLHWVRQAPGKGLEWMGWIDPENGDTEYAPKFQGRVTITADTSTDTGYLELSSLRSEDTAVYYCAANKELRYFDVWGQGTLVTVSS
VL: DIQMTQSPSSVSASVGDRVTITCRASQSISINLHWYQQKPGKAPKLLIKFASQSISGVPSRFSGYGSGTDFSLTINSLQPEDFARYYCQQSNSFPLTFGGGTKVEIKR
On to B6, for which the binding result with human IL-12 [1] and with human IL-23 [2] was “binds” in each case.

B7: Antibody 63 (antibody, human IgG1, kappa, V domains shown)
VH: EVQLVQSGAEVKKPGATVKISCKASGYTFSDYYLHWVRQAPEKGLEWMGWIDPENGDTEYAPKFQGRVTITADTSTDTGYLELSSLRSEDTAVYYCAANKELRYFDVWGQGTLVTVSS
VL: DIQMTQSPSSVSASVGDRVTITCRASQSISINLHWYQQKPGKAPKLLIYFASQSISGVPSRFSGYGSGTDFSLTINSLQPEDFATYYCQQSNSFPLTFGGGTKVEIKR
Regarding B7, the binding result with human IL-12 [1] and with human IL-23 [2] was “binds” throughout.

B8: Antibody 67 (antibody, human IgG1, kappa, V domains shown)
VH: EVQLVQSGAEVKKPGATVKISCKASGYTFSDYYLHWVRQRPGKGLEWMGWIDPENGDTEYAPKFQGRVTITADTSTDTGYLELSSLRSEDTAVYYCAANKELRYFDVWGQGTLVTVSS
VL: DIQMTQSPSSVSASVGDRVTITCRASQSISINLHWYQQKPGKAPKLLIYFASQSISGVPSRFSGSGSGTDFSLTINSLQPEDFARYYCQQSNSFPLTFGGGTKVEIKR
Turning to B8, the binding result with human IL-12 [1] and in the assay with human IL-23 [2] was “binds” throughout.

B9: Antibody 73 (antibody, human IgG1, kappa, V domains shown)
VH: EVQLVQSGAEVKKPGATVKISCKASGYTFSDYYLHWVRQAPEKGLEWMGWIDPENGDTEYAPKFQGRVTITADTSTDTGYLELSSLRSEDTAVYYCAANKELRYFDVWGQGTLVTVSS
VL: DIQMTQSPSSVSASVGDRVTITCRASQSISINLHWYQQKPGKAPKLLIKFASQSISGVPSRFSGYGSGTDFSLTINSLQPEDFARYYCQQSNSFPLTFGGGTKVEIKR
On to B9, for which the binding result with human IL-12 [1] and with human IL-23 [2] was “binds” throughout.

B10: Antibody 61 (antibody, human IgG1, kappa, V domains shown)
VH: EVQLVQSGAEVKKPGATVKISCKASGYTFSDYYLHWVRQAPGKGLEWMGWIDPENGDTEYAPKFQGRVTITADTSTDTGYLELSSLRSEDTAVYYCAANKELRYFDVWGQGTLVTVSS
VL: DIQMTQSPSSVSASVGDRVTITCRASQSISINLHWYQQKPGKAPKLLIYFASQSISGVPSRFSGYGSGTDFSLTINSLQPEDFATYYCQQSNSFPLTFGGGTKVEIKR
With B10, the binding result in the assay with human IL-12 [1] and in the assay with human IL-23 [2] was “binds” in each case.

B11: Antibody 72 (antibody, human IgG1, kappa, V domains shown)
VH: EVQLVQSGAEVKKPGATVKISCKASGYTFSDYYLHWVRQRPGKGLEWMGWIDPENGDTEYAPKFQGRVTITADTSTDTGYLELSSLRSEDTAVYYCAANKELRYFDVWGQGTLVTVSS
VL: DIQMTQSPSSVSASVGDRVTITCRASQSISINLHWYQQKPGKAPKLLIKFASQSISGVPSRFSGYGSGTDFSLTINSLQPEDFARYYCQQSNSFPLTFGGGTKVEIKR
Consider B11, for which the binding result in the assay with human IL-12 [1] and in the assay with human IL-23 [2] was “binds” in each case.

B12: Antibody 74 (antibody, human IgG1, kappa, V domains shown)
VH: EVQLVQSGAEVKKPGATVKISCKASGYTFSDYYLHWVRQAPGKGLEWMGWIDPENGDTEYAPKFQGKVTITADTSTDTGYLELSSLRSEDTAVYYCAANKELRYFDVWGQGTLVTVSS
VL: DIQMTQSPSSVSASVGDRVTITCRASQSISINLHWYQQKPGKAPKLLIKFASQSISGVPSRFSGYGSGTDFSLTINSLQPEDFARYYCQQSNSFPLTFGGGTKVEIKR
As to B12, the binding result with human IL-12 [1] and with human IL-23 [2] was “binds” each time.

B13: Antibody 62 (antibody, human IgG1, kappa, V domains shown)
VH: EVQLVQSGAEVKKPGATVKISCKASGYTFSDYYLHWVRQRPGKGLEWMGWIDPENGDTEYAPKFQGRVTITADTSTDTGYLELSSLRSEDTAVYYCAANKELRYFDVWGQGTLVTVSS
VL: DIQMTQSPSSVSASVGDRVTITCRASQSISINLHWYQQKPGKAPKLLIYFASQSISGVPSRFSGYGSGTDFSLTINSLQPEDFATYYCQQSNSFPLTFGGGTKVEIKR
For the molecule B13, the binding result with human IL-12 [1] and with human IL-23 [2] was “binds” throughout.

B14: Antibody 70 (antibody, human IgG1, kappa, V domains shown)
VH: EVQLVQSGAEVKKPGATVKISCKASGYTFSDYYLHWVRQRPEKGLEWMGWIDPENGDTEYAPKFQGKVTITADTSTDTGYLELSSLRSEDTAVYYCAANKELRYFDVWGQGTLVTVSS
VL: DIQMTQSPSSVSASVGDRVTITCRASQSISINLHWYQQKPGKAPKLLIYFASQSISGVPSRFSGSGSGTDFSLTINSLQPEDFARYYCQQSNSFPLTFGGGTKVEIKR
For B14, the binding result with human IL-12 [1] and in the assay with human IL-23 [2] was “binds” each time.

B15: Antibody 69 (antibody, human IgG1, kappa, V domains shown)
VH: EVQLVQSGAEVKKPGATVKISCKASGYTFSDYYLHWVRQAPGKGLEWMGWIDPENGDTEYAPKFQGKVTITADTSTDTGYLELSSLRSEDTAVYYCAANKELRYFDVWGQGTLVTVSS
VL: DIQMTQSPSSVSASVGDRVTITCRASQSISINLHWYQQKPGKAPKLLIYFASQSISGVPSRFSGSGSGTDFSLTINSLQPEDFARYYCQQSNSFPLTFGGGTKVEIKR
B15: the binding result with human IL-12 [1] and in the assay with human IL-23 [2] was “binds” each time.

B16: Antibody 75 (antibody, human IgG1, kappa, V domains shown)
VH: EVQLVQSGAEVKKPGATVKISCKASGYTFSDYYLHWVRQRPEKGLEWMGWIDPENGDTEYAPKFQGKVTITADTSTDTGYLELSSLRSEDTAVYYCAANKELRYFDVWGQGTLVTVSS
VL: DIQMTQSPSSVSASVGDRVTITCRASQSISINLHWYQQKPGKAPKLLIKFASQSISGVPSRFSGYGSGTDFSLTINSLQPEDFARYYCQQSNSFPLTFGGGTKVEIKR
Take B16: the binding result with human IL-12 [1] and with human IL-23 [2] was “binds” in each case.

The record behind these values is patent publication US20110262445A1 (CEPHALON AUSTRALIA, published 2011).
